Experimental data: patent publication US20190309079A1 (Regeneron, published 2019)

B1: H4H18492P2 (antibody, V domains shown)
VH: QVQLQQWGAGLFKPSETLSLTCDVYGGSFRGYYWSWIRQPPGKGLEWIGEISYSGFTNYNPSLKSRVIISIDTSKNQFSLKMSSVTAADTAVYYCARVTYGYGTFDYWGQGTLVTVSS
VL: not shown
B2: H4H18487P2 (antibody, V domains shown)
VH: QVQLQESGPGLVKPSETLSLTCTVSGGSISNSYWSWIRQPPGKGLEWIGYVYSRGNTKYNPSLTSRVTMSFDTSKNQFSLKLRSVTAADTAVYYCARSSSWYEDWYFDLWGRGTLVTVSS
VL: not shown
B3: H4H18482P2 (antibody, human IgG4, V domains shown)
VH: QVQLQESGPGLVKPSQTLSLTCTVSGGSISSGNYYWNWIRQQPGEGLEWIAYIYHNGVTNFNPSLKSRLTISVDTSKTQFSLKLRSVTAADTAVYYCARSGSWFENWYFDLWGRGTLVTVSS
VL: not shown
notes: human IgG4 Fc

Legend:
[1] = target: T1, human LEPR Ig (D3)-MMH (human, UniProt P48357 340-427, limits assumed); assay: Luminex, myc-captured protein on beads
T1 construct: domain: Ig (D3)
T1 sequence (looked up): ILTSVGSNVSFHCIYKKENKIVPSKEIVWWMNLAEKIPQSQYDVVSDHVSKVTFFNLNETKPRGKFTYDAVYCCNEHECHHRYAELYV
Method: (§1) Aliquots of microspheres with immobilized anti-myc monoclonal antibodies, prepared as described above, were added individually to 1 mL of the each of these protein supernatants. The microspheres were gently mixed, incubated for two hours at 25° C., washed twice with 1 mL of DBPS, centrifuged to remove the supernatant and finally resuspended in 1 mL of DPBS buffer. […] of anti-myc IgG coupled microspheres from individual reactions with full length human LEPR and with each of the human LEPR domain proteins were withdrawn and mixed together in 3.6 mL of PBS+20 mg/mL BSA+0.05% sodium azide (blocking buffer).
(§2) From this mixed pool, 75 μL of microspheres were plated per well on a 96 well filter plate (Millipore, Cat. No: MSBVN1250) and mixed with 25 μL of individual anti-human LEPR monoclonal antibodies (0.5 or 5 μg/mL), incubated for two hours at 25° C. and then washed twice with 200 μL of DPBS with 0.05% Tween 20 (washing buffer). […] After 30 minutes, the samples were washed twice with 200 µL of washing buffer and resuspended in 150 μL of wash buffer. The Median Fluorescence intensity (MFI) of the microspheres was measured in a Luminex Analyzer.

[2] = target: T2, human LEPR CRH1-Ig (D2,D3)-MMH (human, UniProt P48357 230-427, limits assumed); assay: Luminex, myc-captured protein on beads
T2 construct: domain: CRH1-Ig (D2,D3)
T2 sequence (looked up): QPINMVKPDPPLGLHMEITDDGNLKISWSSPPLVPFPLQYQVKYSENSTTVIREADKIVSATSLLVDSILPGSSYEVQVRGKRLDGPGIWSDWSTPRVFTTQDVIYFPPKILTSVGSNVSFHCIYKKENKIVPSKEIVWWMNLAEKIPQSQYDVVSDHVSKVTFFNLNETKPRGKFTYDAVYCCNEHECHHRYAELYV
Method: as §1, §2

| Binder | Luminex MFI [1] | Luminex MFI [2] |
| --- | --- | --- |
| B1 | 19 MFI | 8680 MFI |
| B2 | 22 MFI | 62 MFI |
| B3 | 27 MFI | – |
